Measurements reported in publication PMC3005221 (Biochemistry, 2010).
[ ]: non-standard residue; d: D form. The star is where a group is joined. FITC = O=C1OC2(c3ccc(O)cc3Oc3cc(O)ccc32)c2ccc(NC(=S)*)cc21; Abu = CC[C@H](N)C(=O)O; βAla = NCCC(=O)O

T1: HDAC6 BUZ domain (without GST tag) (UniProt Q9UBN7 1059-1215)
T1 sequence (looked up): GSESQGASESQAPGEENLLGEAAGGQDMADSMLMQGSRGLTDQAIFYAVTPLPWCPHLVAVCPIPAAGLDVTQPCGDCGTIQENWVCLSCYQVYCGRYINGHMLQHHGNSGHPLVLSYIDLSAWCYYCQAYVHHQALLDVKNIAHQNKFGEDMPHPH


How the values were obtained:
Assay in all cases: fluorescence polarisation
[1] = target: T1, HDAC6 BUZ domain (without GST tag)
[2] = target: (His)6-tagged Ubp-M BUZ domain (UniProt Q9Y5T5 22-143)
Target sequence in this assay (Q9Y5T5 22-143): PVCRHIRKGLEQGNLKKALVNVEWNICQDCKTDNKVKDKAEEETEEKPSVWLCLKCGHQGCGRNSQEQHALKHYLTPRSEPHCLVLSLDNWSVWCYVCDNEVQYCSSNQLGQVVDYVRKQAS

[3] = target: (His)6-tagged Ubp-M BUZ domain (UniProt Q9Y5T5 22-143); remark: listed apart in the source
Target sequence in this assay (Q9Y5T5 whole entry, looked up, the tested form may be a part): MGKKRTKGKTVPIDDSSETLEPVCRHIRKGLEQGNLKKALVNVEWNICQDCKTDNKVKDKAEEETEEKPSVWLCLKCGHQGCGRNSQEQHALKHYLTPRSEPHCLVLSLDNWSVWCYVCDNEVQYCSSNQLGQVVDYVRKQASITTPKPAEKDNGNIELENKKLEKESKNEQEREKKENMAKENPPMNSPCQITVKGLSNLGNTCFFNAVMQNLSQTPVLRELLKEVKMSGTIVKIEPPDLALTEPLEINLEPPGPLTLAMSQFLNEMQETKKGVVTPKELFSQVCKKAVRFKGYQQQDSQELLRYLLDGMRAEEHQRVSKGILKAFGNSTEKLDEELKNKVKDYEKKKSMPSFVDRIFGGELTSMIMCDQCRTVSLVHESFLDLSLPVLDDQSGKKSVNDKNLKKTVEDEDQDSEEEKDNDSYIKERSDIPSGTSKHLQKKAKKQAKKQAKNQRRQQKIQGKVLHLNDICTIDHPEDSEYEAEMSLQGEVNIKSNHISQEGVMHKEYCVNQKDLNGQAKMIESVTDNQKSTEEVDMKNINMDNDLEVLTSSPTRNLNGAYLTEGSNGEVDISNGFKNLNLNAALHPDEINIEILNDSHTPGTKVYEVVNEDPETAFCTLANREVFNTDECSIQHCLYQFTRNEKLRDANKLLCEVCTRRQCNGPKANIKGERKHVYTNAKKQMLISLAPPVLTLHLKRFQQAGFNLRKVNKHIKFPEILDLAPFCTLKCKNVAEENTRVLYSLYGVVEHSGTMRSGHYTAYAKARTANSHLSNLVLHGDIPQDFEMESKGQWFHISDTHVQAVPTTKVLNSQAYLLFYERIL

[4] = target: GST-HDAC6 BUZ (UniProt Q9UBN7 1059-1215)

| Binder | Kd [2] [µM] | further results |
| --- | --- | --- |
| {FITC-βAla-βAla}-NALGG-OH (SMILES CC(C)C[C@H](NC(=O)[C@H](C)NC(=O)[C@H](CC(N)=O)NC(=O)CCNC(=O)CCNC(=S)Nc1ccc2c(c1)C(=O)OC21c2ccc(O)cc2Oc2cc(O)ccc21)C(=O)NCC(=O)NCC(=O)O) [FITC-β-Ala-β-Ala-NALGG] | 33 ± 7 | Kd [1]: 0.23 ± 0.02 µM |
| {FITC-βAla-βAla}-RGMGG-OH (SMILES CSCC[C@H](NC(=O)CNC(=O)[C@H](CCCNC(=N)N)NC(=O)CCNC(=O)CCNC(=S)Nc1ccc2c(c1)C(=O)OC21c2ccc(O)cc2Oc2cc(O)ccc21)C(=O)NCC(=O)NCC(=O)O) [FITC-β-Ala-β-Ala-RGMGG] | 17 ± 3 | – |
| {FITC-βAla-βAla}-Y[Abu]IGG-OH (SMILES CC[C@H](NC(=O)[C@H](Cc1ccc(O)cc1)NC(=O)CCNC(=O)CCNC(=S)Nc1ccc2c(c1)C(=O)OC21c2ccc(O)cc2Oc2cc(O)ccc21)C(=O)N[C@H](C(=O)NCC(=O)NCC(=O)O)[C@@H](C)CC) [FITC-β-Ala-β-Ala-YUIGG] | – | Kd [3]: 12 ± 2 µM; Kd [4]: 1.3 ± 0.1 µM |
| {FITC-βAla-βAla}-LQDGF-OH (SMILES CC(C)C[C@H](NC(=O)CCNC(=O)CCNC(=S)Nc1ccc2c(c1)C(=O)OC21c2ccc(O)cc2Oc2cc(O)ccc21)C(=O)N[C@@H](CCC(N)=O)C(=O)N[C@@H](CC(=O)O)C(=O)NCC(=O)N[C@@H](Cc1ccccc1)C(=O)O) [FITC-β-Ala-β-Ala-LQDGF] | > 150 | – |
| {FITC-βAla-βAla}-YGFGG-OH (SMILES O=C(O)CNC(=O)CNC(=O)[C@H](Cc1ccccc1)NC(=O)CNC(=O)[C@H](Cc1ccc(O)cc1)NC(=O)CCNC(=O)CCNC(=S)Nc1ccc2c(c1)C(=O)OC21c2ccc(O)cc2Oc2cc(O)ccc21) [FITC-β-Ala-β-Ala-YGFGG] | 13 ± 3 | – |
| {FITC-βAla-βAla}-IAKGG-OH (SMILES CC[C@H](C)[C@H](NC(=O)CCNC(=O)CCNC(=S)Nc1ccc2c(c1)C(=O)OC21c2ccc(O)cc2Oc2cc(O)ccc21)C(=O)N[C@@H](C)C(=O)N[C@@H](CCCCN)C(=O)NCC(=O)NCC(=O)O) [FITC-β-Ala-β-Ala-IAKGG] | 12 ± 3 | – |
